4 molecules from publication PMC5916898, “Global profiling of protein–DNA and protein–nucleosome binding affinities using quantitative mass spectrometry” can be followed below.

Among the targets are KLF4 (Homo sapiens, UniProt O43474); SP1 (Homo sapiens, UniProt P08047); KLF5 (Homo sapiens, UniProt Q13887); TFAP2A (Homo sapiens, UniProt P05549); KLF16 (Homo sapiens, UniProt Q9BXK1); ZBTB7A (Homo sapiens, UniProt O95365).
Holding throughout (assay): pulldown; 150 mM NaCl, 50 mM Tris pH 8, 0.25% NP-40, 1 mM TCEP; 4 C, 2 h; 100 ug HeLa nuclear lysate
Holding throughout (settings): protein: extract; label: 5' biotin (strand 1)

For another series, the target named is T1, ZNF148 (Homo sapiens, UniProt Q9UQR1).
T1 sequence: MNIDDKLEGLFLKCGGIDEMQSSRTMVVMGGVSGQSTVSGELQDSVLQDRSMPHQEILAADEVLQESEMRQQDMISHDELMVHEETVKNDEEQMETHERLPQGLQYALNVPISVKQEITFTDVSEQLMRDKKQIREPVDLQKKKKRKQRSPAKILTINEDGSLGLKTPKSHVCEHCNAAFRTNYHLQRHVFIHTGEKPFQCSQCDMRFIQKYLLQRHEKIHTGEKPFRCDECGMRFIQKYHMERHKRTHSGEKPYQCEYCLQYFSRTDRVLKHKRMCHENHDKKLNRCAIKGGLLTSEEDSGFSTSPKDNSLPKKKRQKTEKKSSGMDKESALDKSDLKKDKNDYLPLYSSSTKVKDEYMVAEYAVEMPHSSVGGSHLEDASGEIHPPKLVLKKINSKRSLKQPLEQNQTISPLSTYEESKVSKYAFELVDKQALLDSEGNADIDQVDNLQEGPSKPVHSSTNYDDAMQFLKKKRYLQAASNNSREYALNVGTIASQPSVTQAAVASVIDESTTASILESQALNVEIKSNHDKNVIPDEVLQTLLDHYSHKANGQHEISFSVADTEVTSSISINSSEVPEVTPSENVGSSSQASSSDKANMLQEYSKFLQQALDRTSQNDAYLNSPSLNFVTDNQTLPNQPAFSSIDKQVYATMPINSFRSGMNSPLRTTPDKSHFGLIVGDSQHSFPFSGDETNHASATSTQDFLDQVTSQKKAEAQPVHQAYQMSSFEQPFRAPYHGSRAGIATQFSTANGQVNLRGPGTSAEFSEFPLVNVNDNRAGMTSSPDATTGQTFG

The next series addresses T2, VEZF1 (Homo sapiens, UniProt Q14119).
T2 sequence: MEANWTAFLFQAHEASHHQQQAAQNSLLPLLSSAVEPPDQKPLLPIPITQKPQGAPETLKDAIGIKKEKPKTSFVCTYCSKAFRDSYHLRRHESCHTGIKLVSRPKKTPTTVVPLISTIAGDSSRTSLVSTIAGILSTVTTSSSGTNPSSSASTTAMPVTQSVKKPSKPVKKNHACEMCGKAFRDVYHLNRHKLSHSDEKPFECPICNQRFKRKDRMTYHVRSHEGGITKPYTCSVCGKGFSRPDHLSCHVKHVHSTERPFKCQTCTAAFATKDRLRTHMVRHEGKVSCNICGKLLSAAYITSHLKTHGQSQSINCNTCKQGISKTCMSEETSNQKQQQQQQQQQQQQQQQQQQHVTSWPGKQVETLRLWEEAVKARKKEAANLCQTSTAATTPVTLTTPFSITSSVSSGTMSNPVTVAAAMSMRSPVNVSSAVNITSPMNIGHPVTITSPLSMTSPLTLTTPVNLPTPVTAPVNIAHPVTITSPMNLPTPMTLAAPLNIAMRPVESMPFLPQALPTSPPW

Sequence of SP1 (P08047 whole entry): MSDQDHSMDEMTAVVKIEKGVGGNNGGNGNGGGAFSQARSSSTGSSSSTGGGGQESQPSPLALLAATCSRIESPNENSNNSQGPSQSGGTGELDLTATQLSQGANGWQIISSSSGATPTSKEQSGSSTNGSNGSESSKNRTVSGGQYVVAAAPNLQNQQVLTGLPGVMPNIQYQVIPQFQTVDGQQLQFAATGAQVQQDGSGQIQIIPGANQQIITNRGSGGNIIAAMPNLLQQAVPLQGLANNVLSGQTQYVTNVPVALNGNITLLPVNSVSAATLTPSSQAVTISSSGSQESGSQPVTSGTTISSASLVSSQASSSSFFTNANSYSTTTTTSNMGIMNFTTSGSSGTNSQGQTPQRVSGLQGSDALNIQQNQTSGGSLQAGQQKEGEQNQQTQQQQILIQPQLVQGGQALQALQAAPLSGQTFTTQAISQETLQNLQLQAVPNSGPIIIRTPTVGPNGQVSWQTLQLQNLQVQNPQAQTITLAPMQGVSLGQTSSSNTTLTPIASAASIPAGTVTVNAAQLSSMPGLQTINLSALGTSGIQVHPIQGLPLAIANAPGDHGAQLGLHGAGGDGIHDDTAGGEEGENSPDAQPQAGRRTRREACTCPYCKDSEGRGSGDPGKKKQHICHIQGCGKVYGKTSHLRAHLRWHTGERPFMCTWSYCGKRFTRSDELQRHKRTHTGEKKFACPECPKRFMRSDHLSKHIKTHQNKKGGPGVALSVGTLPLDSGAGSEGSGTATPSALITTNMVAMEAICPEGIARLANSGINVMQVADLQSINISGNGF
Sequence of KLF4 (O43474 whole entry): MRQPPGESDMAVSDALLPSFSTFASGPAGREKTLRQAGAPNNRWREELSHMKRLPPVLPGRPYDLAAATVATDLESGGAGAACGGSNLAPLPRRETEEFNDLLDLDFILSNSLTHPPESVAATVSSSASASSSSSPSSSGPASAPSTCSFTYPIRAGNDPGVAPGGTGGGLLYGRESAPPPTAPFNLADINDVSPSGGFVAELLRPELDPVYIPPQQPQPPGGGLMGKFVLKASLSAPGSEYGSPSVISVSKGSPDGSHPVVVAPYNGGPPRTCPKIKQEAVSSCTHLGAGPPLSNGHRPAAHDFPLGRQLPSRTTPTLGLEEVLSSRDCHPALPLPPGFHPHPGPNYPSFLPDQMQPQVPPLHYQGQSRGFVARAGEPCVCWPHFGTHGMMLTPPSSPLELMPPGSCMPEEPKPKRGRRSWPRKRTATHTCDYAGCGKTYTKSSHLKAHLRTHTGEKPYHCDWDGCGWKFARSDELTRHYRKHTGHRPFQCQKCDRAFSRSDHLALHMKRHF
Sequence of KLF5 (Q13887 whole entry): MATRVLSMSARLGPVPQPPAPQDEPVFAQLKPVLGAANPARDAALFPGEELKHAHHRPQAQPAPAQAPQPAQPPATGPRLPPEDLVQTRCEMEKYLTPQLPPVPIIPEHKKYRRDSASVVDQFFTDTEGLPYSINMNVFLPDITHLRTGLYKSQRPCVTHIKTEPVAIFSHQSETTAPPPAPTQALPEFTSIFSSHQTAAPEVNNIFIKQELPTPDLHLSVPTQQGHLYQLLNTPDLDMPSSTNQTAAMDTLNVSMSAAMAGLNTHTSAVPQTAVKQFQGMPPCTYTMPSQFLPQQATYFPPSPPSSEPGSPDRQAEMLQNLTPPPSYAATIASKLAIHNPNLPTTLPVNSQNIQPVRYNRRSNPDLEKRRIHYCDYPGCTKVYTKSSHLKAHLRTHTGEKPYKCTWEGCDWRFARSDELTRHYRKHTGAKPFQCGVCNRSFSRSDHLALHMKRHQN
Sequence of KLF16 (Q9BXK1 whole entry): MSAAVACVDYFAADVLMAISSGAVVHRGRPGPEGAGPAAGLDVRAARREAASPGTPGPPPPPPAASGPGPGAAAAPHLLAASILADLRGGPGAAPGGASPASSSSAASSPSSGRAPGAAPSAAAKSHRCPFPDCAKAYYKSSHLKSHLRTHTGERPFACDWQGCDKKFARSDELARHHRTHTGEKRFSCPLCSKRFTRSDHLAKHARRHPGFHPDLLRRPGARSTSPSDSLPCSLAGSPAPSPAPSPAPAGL
Sequence of TFAP2A (P05549 whole entry): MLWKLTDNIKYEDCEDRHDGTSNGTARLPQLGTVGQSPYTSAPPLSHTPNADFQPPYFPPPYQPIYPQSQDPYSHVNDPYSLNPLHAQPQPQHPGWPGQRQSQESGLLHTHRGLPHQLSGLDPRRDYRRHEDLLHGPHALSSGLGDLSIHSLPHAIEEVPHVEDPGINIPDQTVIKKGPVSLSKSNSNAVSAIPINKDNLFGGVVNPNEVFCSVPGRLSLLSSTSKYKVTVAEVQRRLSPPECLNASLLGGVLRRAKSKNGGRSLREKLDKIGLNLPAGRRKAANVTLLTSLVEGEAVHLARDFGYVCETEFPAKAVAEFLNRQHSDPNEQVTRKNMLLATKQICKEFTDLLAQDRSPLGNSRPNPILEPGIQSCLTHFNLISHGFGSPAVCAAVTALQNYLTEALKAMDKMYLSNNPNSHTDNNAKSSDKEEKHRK
Sequence of ZBTB7A (O95365 whole entry): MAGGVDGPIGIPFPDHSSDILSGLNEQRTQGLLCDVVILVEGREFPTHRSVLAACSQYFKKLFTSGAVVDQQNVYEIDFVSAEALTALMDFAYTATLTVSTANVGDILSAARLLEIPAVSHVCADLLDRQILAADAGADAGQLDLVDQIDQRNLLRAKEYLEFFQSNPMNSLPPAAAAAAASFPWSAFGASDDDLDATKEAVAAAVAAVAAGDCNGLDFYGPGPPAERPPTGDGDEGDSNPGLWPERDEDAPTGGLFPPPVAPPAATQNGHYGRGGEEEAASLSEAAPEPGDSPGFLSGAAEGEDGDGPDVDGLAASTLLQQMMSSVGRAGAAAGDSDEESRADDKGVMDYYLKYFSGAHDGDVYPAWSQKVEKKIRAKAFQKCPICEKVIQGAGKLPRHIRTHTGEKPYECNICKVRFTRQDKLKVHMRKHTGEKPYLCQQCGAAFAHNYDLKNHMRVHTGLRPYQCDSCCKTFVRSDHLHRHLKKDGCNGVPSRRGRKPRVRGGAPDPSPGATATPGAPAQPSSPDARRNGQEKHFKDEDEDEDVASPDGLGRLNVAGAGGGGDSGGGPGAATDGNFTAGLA

B1: SP/KLF wild-type (dsDNA)
DNA 1: GAGAGCCCCGCCCCCTGGCT
DNA 2: AGCCAGGGGGCGGGGCTCTC
Turning to B1, the “apparent K (half saturation)” value with KLF4 amounted to 79.3 nM; with SP1 it was 38 nM; with KLF5, 37 nM; in the series with TFAP2A, 196 nM; with ZNF148 it was 70.5 nM; in the series with VEZF1, 182 nM. The “apparent K (half saturation)” value in the series with KLF16 was 14.5 nM; in the series with ZBTB7A, 174 nM.

B2: CTCF (dsDNA)
DNA 1: TCAGAGTGGCGGCCAGCAGGGGGCGCCCTTGCCAGA
DNA 2: TCTGGCAAGGGCGCCCCCTGCTGGCCGCCACTCTGA
Turning to B2, the “apparent K (half saturation)” value was 26.3 nM in the series with KLF4; 86.9 nM in the series with SP1; 25.3 nM with KLF5; 83.3 nM in the series with TFAP2A; 63.7 nM with ZNF148; 34.1 nM with VEZF1. The entries for the “apparent K (half saturation)” value with KLF16 and with ZBTB7A were 109 nM and 38.9 nM, respectively.

B3: TATA-box (dsDNA)
DNA 1: GCGGCGCTCTATATAAGTGGGCAGTG
DNA 2: CACTGCCCACTTATATAGAGCGCCGC
As for B3, the “apparent K (half saturation)” value was 159 nM with KLF4; 284 nM with SP1; 219 nM with KLF5; 328 nM with TFAP2A; 383 nM with ZNF148; 227 nM in the series with VEZF1. The entries for the “apparent K (half saturation)” value with KLF16 and with ZBTB7A were 151 nM and 258 nM, respectively.

B4: TEAD (dsDNA)
DNA 1: TCGGGACCCAGGCCTGGAATGTTTCCACC
DNA 2: GGTGGAAACATTCCAGGCCTGGGTCCCGA
For the molecule B4, the “apparent K (half saturation)” value with KLF5 was found to be 101 nM; with TFAP2A, 193 nM; with ZNF148 it was 387 nM; with VEZF1, 225 nM; with ZBTB7A, 129 nM.
